In article PMC8441365, “SCF^Fbxw5 targets kinesin‐13 proteins to facilitate ciliogenesis” (The EMBO Journal, 2021):

B2: Fbxw5/Skp1 sub-complex (complex, human)
chain 1: MDEGGTPLLPDSLVYQIFLSLGPADVLAAGLVCRQWQAVSRDEFLWREQFYRYYQVARDVPRHPAAMSWYEEFQRLYDTVPCVEVQTLREHTDQVLHLSFSHSGYQFASCSKDCTVKIWSNDLTISLLHSADMRPYNWSYTQFSQFNKDDSLLLASGVFLGPHNSSSGEIAVISLDSFALLSRVRNKPYDVFGCWLTETSLISGNLHRIGDITSCSVLWLNNAFQDVESENVNVVKRLFKIQNLNASTVRTVMVADCSRFDSPDLLLEAGDPATSPCRIFDLGSDNEEVVAGPAPAHAKEGLRHFLDRVLEGRAQPQLSERMLETKVAELLAQGHTKPPERSATGAKSKYLIFTTGCLTYSPHQIGIKQILPHQMTTAGPVLGEGRGSDAFFDALDHVIDIHGHIIGMGLSPDNRYLYVNSRAWPNGAVVADPMQPPPIAEEIDLLVFDLKTMREVRRALRAHRAYTPNDECFFIFLDVSRDFVASGAEDRHGYIWDRHYNICLARLRHEDVVNSVVFSPQEQELLLTASDDATIKAWRSPRTMRVLQAPRPRPRTFFSWLASQRR
chain 2: MPSIKLQSSDGEIFEVDVEIAKQSVTIKTMLEDLGMDPVPLPNVNAAILKKVIQWCTHHKDDPPDDIPVWDQEFLKVDQGTLFELILAANYLDIKGLLDVTCKTVANMIKGKTPEEIRKTFNIKNDFTEEEEAQVRKENQWCEEK
notes: Fbxw5, human; Skp1, human, with deletion of two loops (aa 38-43 and 71-82), plasmid pFastBac1-Skp1ΔΔ; pFastBac1-Skp1ΔΔ is the Skp1 baculovirus plasmid that the methods describe; source: Sf21, co-infected with both baculoviruses, purified (Ni-NTA, Superdex 200); not shown: His tag (from the Ni-NTA purification and precipitation)

Assays:
[1] = molecular target: B2; test: pull-down; purified proteins from Sf21 cells, 5-fold molar excess of prey over Fbxw5/Skp1 bait, mixed with competing E. coli lysate in PD buffer (20 mM HEPES pH 7.3, 110 mM K-acetate, 300 mM NaCl, 20 mM imidazole, 0.1% NP-40), precipitated via Ni-NTA agarose, SDS-PAGE; details: both partners purified
[2] = molecular target: T1, MCAK (purified from Sf21 cells) (human, UniProt Q99661 1-725); test: as above; details: both partners purified
T1 construct: Kif2c/MCAK, human; also called Kif2c; source: Sf21, purified (Ni-NTA, TEV cleavage, Superdex 200)
T1 sequence (looked up): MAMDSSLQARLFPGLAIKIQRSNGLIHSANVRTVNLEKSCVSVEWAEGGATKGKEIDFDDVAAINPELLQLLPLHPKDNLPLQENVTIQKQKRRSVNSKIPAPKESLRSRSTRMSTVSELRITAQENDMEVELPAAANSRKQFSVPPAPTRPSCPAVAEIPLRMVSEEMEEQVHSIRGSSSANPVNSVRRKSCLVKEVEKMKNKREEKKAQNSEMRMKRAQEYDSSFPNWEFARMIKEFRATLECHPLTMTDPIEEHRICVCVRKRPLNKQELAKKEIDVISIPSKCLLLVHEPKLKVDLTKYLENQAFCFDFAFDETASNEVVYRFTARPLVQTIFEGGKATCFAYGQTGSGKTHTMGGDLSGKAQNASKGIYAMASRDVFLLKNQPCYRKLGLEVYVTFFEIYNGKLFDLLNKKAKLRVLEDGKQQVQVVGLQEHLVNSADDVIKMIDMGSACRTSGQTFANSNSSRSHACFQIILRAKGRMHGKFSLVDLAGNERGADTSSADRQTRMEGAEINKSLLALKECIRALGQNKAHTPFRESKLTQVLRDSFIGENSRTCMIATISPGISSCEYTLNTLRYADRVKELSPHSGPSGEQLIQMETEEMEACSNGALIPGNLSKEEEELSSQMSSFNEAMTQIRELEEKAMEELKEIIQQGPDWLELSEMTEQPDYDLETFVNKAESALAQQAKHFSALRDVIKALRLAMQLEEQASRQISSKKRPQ

B1: Kif2a (purified from Sf21 cells) (natural protein, human, UniProt O00139-1 1-679, looked up)
chain: MVTSLNEDNESVTVEWIENGDTKGKEIDLESIFSLNPDLVPDEEIEPSPETPPPPASSAKVNKIVKNRRTVASIKNDPPSRDNRVVGSARARPSQFPEQSSSAQQNGSVSDISPVQAAKKEFGPPSRRKSNCVKEVEKLQEKREKRRLQQQELREKRAQDVDATNPNYEIMCMIRDFRGSLDYRPLTTADPIDEHRICVCVRKRPLNKKETQMKDLDVITIPSKDVVMVHEPKQKVDLTRYLENQTFRFDYAFDDSAPNEMVYRFTARPLVETIFERGMATCFAYGQTGSGKTHTMGGDFSGKNQDCSKGIYALAARDVFLMLKKPNYKKLELQVYATFFEIYSGKVFDLLNRKTKLRVLEDGKQQVQVVGLQEREVKCVEDVLKLIDIGNSCRTSGQTSANAHSSRSHAVFQIILRRKGKLHGKFSLIDLAGNERGADTSSADRQTRLEGAEINKSLLALKECIRALGRNKPHTPFRASKLTQVLRDSFIGENSRTCMIATISPGMASCENTLNTLRYANRVKELTVDPTAAGDVRPIMHHPPNQIDDLETQWGVGSSPQRDDLKLLCEQNEEEVSPQLFTFHEAVSQMVEMEEQVVEDHRAVFQESIRWLEDEKALLEMTEEVDYDVDSYATQLEAILEQKIDILTELRDKVKSFRAALQEEEQASKQINPKRPRAL
notes: source: Sf21, purified (Ni-NTA, TEV cleavage, Superdex 200)
binding result [1]: binds

B2
binding result [2]: binds
